Test results: paper PMC10164549

Legend:
[1] = molecular target: Salmonella enterica serovar Montevideo DpdB, His6-tagged (Salmonella enterica subsp. enterica serotype Montevideo); experiment: SEC-SAXS + SEC-MALS
[2] = molecular target: Salmonella enterica serovar Montevideo DpdB, His6 tag removed (Salmonella enterica subsp. enterica serotype Montevideo); experiment: SEC
[3] = molecular target: T1, DpdA D95A (Salmonella enterica subsp. enterica …, UniProt P0DW33 1-416, D95A); experiment: SEC-SAXS/MALS
T1 sequence: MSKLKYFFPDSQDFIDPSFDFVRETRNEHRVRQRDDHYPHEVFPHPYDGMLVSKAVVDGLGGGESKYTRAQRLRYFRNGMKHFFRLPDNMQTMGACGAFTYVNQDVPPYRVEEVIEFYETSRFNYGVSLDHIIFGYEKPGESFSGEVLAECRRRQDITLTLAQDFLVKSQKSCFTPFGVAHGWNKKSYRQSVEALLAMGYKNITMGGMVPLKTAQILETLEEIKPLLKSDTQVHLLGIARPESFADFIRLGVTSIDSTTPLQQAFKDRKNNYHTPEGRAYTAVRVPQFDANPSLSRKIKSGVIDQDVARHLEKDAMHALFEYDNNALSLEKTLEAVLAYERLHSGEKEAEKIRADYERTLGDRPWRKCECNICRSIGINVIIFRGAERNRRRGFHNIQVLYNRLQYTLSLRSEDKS

[4] = molecular target: T2, DpdA F265A (Salmonella enterica subsp. enterica …, UniProt P0DW33 1-416, F265A); experiment: EMSA
T2 sequence: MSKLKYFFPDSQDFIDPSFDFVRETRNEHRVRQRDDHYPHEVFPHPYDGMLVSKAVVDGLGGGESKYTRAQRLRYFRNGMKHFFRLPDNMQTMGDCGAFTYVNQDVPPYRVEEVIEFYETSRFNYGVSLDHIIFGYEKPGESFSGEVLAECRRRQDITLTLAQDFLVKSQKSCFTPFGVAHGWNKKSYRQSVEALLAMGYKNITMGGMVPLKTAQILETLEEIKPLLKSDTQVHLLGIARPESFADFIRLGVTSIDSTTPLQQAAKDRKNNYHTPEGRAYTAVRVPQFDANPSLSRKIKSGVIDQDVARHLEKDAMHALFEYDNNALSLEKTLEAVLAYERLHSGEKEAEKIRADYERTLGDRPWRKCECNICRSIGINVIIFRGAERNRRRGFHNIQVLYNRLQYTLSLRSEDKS

[5] = molecular target: T3, DpdA wild type (Salmonella enterica subsp. enterica …, UniProt P0DW33 1-416); experiment: EMSA
T3 sequence: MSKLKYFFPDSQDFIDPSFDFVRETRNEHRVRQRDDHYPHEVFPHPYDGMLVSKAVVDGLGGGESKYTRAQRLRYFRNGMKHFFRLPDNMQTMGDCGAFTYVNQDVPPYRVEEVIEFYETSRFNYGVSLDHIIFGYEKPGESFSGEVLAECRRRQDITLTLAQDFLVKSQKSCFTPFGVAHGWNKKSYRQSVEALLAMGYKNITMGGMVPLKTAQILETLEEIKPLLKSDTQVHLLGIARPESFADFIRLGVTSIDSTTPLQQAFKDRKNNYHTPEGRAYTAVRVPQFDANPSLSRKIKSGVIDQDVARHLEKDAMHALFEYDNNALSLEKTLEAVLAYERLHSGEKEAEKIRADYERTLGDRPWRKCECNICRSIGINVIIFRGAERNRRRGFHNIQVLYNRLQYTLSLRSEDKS

Which stoichiometry N [1] does the source give for “Salmonella enterica serovar Montevideo DpdB, His6-tagged (enzyme)” here?
The stoichiometry N was 2.

Which stoichiometry N [2] does the source give for “Salmonella enterica serovar Montevideo DpdB, His6 tag removed (enzyme)” here?
Its stoichiometry N is 2.

B1: 28 bp DNA duplex (28bpDuplexF/R) (dsDNA)
DNA 1: GGGGTTTTCGCCAGCTGGCGTTTTGGGG
DNA 2: CCCCAAAACGCCAGCTGGCGAAAACCCC
Does B1 bind [3]?
Result: binds

B2: 28 bp DNA duplex spiked with 1% 6-FAM-labeled strand (dsDNA)
DNA 1: GGGGTTTTCGCCAGCTGGCGTTTTGGGG
DNA 2: CCCCAAAACGCCAGCTGGCGAAAACCCC
For B2, which Kd [4] is on record?
The Kd was 2300 ± 100 nM.

What about the Kd [5] of the same molecule?
The Kd was 3400 ± 200 nM.
